What was measured:
Experiment in all cases: FACS on HEK293 cells transfected with the DDR1 variant
[1] = target: FLAG-tagged human DDR1 R105A variant (human, UniProt Q08345 19-913)
Experimental: (§1) Full length cDNA encoding FLAG-tagged human DDR1 variants were transiently transfected into HEK293 cells using standard procedures as known to one skilled in the art. To determine the capacity of antibodies to bind the DDR1 variants, antibodies were incubated with HEK293 cells transfected with plasmid encoding either wild type DDR1 or one of the point mutation variants. All cells were co-transfected with plasmid encoding GFP. The cells were analyzed by FACS as described herein for binding of the antibodies to wild type DDR1 and to DDR1 variants.

[2] = target: FLAG-tagged human DDR1 S175A variant (human, UniProt Q08345 19-913)
FLAG-tagged human DDR1 S175A variant, sequence (Q08345 other isoform, or with tags, fused parts or gaps S175A S175A limits assumed): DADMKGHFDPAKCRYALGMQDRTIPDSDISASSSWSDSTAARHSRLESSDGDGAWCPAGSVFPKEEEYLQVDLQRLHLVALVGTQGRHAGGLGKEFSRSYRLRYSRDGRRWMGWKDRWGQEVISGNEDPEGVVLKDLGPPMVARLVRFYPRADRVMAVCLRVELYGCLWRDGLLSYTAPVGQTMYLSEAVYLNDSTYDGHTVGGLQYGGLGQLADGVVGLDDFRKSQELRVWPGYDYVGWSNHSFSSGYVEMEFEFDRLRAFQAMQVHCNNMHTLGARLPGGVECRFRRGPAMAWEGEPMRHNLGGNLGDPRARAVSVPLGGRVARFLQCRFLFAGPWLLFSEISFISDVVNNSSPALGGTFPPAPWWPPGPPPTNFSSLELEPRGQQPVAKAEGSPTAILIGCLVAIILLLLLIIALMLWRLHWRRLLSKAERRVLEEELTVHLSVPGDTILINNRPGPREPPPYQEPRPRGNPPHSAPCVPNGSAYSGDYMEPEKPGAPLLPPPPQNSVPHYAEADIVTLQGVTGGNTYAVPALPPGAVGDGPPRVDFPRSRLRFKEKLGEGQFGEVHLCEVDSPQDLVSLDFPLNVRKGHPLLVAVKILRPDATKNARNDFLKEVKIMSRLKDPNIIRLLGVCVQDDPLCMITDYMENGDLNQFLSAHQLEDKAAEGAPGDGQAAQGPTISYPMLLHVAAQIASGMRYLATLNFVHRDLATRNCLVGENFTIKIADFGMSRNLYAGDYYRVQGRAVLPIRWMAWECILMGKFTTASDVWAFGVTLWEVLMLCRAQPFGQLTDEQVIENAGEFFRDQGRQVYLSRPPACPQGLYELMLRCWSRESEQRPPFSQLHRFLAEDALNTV
Experimental: as §1

[3] = target: FLAG-tagged human DDR1 D68A variant (human, UniProt Q08345 19-913)
FLAG-tagged human DDR1 D68A variant, sequence (Q08345 other isoform, or with tags, fused parts or gaps D68A D68A limits assumed): as the sequence (Q08345 other isoform, or with tags, fused parts or gaps S175A S175A limits assumed) above, with D50A, A157S counted along it
Experimental: as §1

[4] = target: FLAG-tagged human DDR1 E113Q variant (human, UniProt Q08345 19-913)
FLAG-tagged human DDR1 E113Q variant, sequence (Q08345 other isoform, or with tags, fused parts or gaps E113Q E113Q limits assumed): as the sequence (Q08345 other isoform, or with tags, fused parts or gaps S175A S175A limits assumed) above, with E95Q, A157S counted along it
Experimental: as §1

[5] = target: FLAG-tagged human DDR1 L110A variant (human, UniProt Q08345 19-913)
FLAG-tagged human DDR1 L110A variant, sequence (Q08345 other isoform, or with tags, fused parts or gaps L110A L110A limits assumed): as the sequence (Q08345 other isoform, or with tags, fused parts or gaps S175A S175A limits assumed) above, with L92A, A157S counted along it
Experimental: as §1

Measured: binding result

FLAG-tagged human DDR1 R105A variant, sequence (Q08345 other isoform, or with tags, fused parts or gaps R105A R105A limits assumed): as the sequence (Q08345 other isoform, or with tags, fused parts or gaps S175A S175A limits assumed) above, with R87A, A157S counted along it

B1: antibody 20M102 (antibody, mouse IgG1, kappa, V domains shown)
VH: EVQLQQSGSELVKPGASVKMSCKASGYTFTDYFMKWVKQSHGKSLEWIGDINPNNGDTFYIQKFKGKATLTVDKSSSTAYMQLNSLTSEDSAVYYCSRDLAYWGQGTLVAVSS
VL: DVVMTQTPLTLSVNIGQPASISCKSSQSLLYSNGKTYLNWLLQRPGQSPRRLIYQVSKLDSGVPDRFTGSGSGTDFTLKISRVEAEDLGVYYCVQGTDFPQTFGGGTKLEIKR
notes: Mouse monoclonal IgG purified from hybridoma supernatant; also called anti-DDR1 antibody 20M102; hybridoma ATCC PTA-10051
binds: [1] | [2] | [3] | [4] | [5]
